Test results as given in US20230235004A1 (published 2023).
Substitutions are numbered along the chain they refer to.

B1: MAdCAM antibody Table 1 clone 39 (scFv)
scFv: QVQLVQSGAEVKKPGASVKVSCKASGYTFTSYYMHWVRQAPGQGLEWMGWMNPNSGNTGYAQKFQGRVTMTRDTSTSTVYMELSSLRSEDTAVYYCARDLGYYDSSGYFGAFDIWGQGTTVTVSSGGGGSGGGGSGGGGSGGGGSDIQMTQSPSSLSASVGDRVTITCQSSEDISSSLNWYQQKPGKAPKLLIYAASSLQIGVPSRFSGSGSGTDFTLTISSLQPEDFATYYCQQTYSTPYTFGQGTKVEIK
B2: MAdCAM antibody Table 1 clone 32 (scFv)
scFv: QVQLVQSGAEVKKPGASVKVSCKASGYTLTDYYMHWVRQAPGQGLEWMGIINPSGGSTSYAQKFQGRVTMTRDTSTSTVYMELSSLRSEDTAVYYCAREEYSSSSGYFDYWGQGTLVTVSSGGGGSGGGGSGGGGSGGGGSDIQMTQSPSSLSASVGDRVTITCRASQGISSWLAWYQQKPGKAPKLLIYAASSLQSGVPSRFSGSGSGTDFTLTISSLQPEDFATYYCQQSYSTPLTFGQGTKVEIK
B3: MAdCAM antibody Table 1 clone 37 (scFv)
scFv: QVQLVQSGAEVKKPGASVKVSCKASGYTFSKHFVHWVRQAPGQGLEWMGWMNPNSGNSGYAQKFQGRVTMTRDTSTSTVYMELSSLRSEDTAVYYCARGEGGYYYYGMDVWGQGTLVTVSSGGGGSGGGGSGGGGSGGGGSDIQMTQSPSSLSASVGDRVTITCRASQSISSWLAWYQQKPGKAPKLLIYAASTLQSGVPSRFSGSGSGTDFTLTISSLQPEDFATYYCQQSYSTPWTFGQGTKVEIK
B4: MAdCAM antibody Table 1 clone 43 (scFv)
scFv: EVQLLESGGGLVQPGGSLRLSCAASGFTFDDFAMHWVRQAPGKGLEWVSGISGNGDSRYYADSVKGRFTISRDNSKNTLYLQMNSLRAEDTAVYYCARDASYGGNYGMDVWGQGTTVTVSSGGGGSGGGGSGGGGSGGGGSDIQMTQSPSSLSASVGDRVTITCQASQDIRNYLNWYQQKPGKAPKLLIYKASTLESGVPSRFSGSGSGTDFTLTISSLQPEDFATYYCQQANSFPLTFGPGTKVDIK
B5: MAdCAM antibody Table 1 clone 56 (scFv)
scFv: EVQLLESGGGLVQPGGSLRLSCAASGFTFDDYAMHWVRQAPGKGLEWVSAISGGGEDTYYADSVKGRFTISRDNSKNTLYLQMNSLRAEDTAVYYCARDASYGGNYGMDVWGQGTTVTVSSGGGGSGGGGSGGGGSGGGGSDIQMTQSPSSLSASVGDRVTITCQASQDIRNYLNWYQQKPGKAPKLLIYKASSLESGVPSRFSGSGSGTDFTLTISSLQPEDFATYYCQQANSYPVTFGGGTKVEIK
B6: MAdCAM antibody Table 1 clone 40 (scFv)
scFv: QVQLVQSGAEVKKPGASVKVSCKASGYTFTSYGISWVRQAPGQGLEWMGIINPRGGSTIFAQKFQGRVTMTRDTSTSTVYMELSSLRSEDTAVYYCARGTRSSGWYGWFDPWGQGTLVTVSSGGGGSGGGGSGGGGSGGGGSDIQMTQSPSSLSASVGDRVTITCRASQGIGNWLAWYQQKPGKAPKLLIYAASNLETGVPSRFSGSGSGTDFTLTISSLQPEDFATYYCQQIHSYPLTFGGGTKVEIK
B7: MAdCAM antibody Table 1 clone 35 (scFv)
scFv: EVQLLESGGGLVQPGGSLRLSCAASGFSFSSYTMNWVRQAPGKGLEWVSFITSSSRTIYYADSVKGRFTISRDNSKNTLYLQMNSLRAEDTAVYYCARDRRGDYGDSWYFDLWGRGTLVTVSSGGGGSGGGGSGGGGSGGGGSEIVMTQSPATLSVSPGERATLSCRASQSVRNYLAWYQQKPGQAPRLLIYGASTRATGIPARFSGSGSGTEFTLTISSLQSEDFAVYYCQQYGSSPLTFGGGTKVEIK
B8: MAdCAM antibody Table 1 clone 29 (scFv)
scFv: QVQLVQSGAEVKKPGASVKVSCKASGYTFTSYYMHWVRQAPGQGLEWMAWMNPNSGNTGYAQKFQGRVTMTRDTSTSTVYMELSSLRSEDTAVYYCARDYDFWSGSLGYWGQGTLVTVSSGGGGSGGGGSGGGGSGGGGSDIQMTQSPSSLSASVGDRVTITCRASQGISNYLAWYQQKPGKAPKLLIYAASSLQSGVPSRFSGSGSGTDFTLTISSLQPEDFATYYCQQSYSTPWTFGQGTKVEIK
B9: MAdCAM antibody Table 1 clone 33 (scFv)
scFv: QVQLVQSGAEVKKPGASVKVSCKASGYTFTSYGISWVRQAPGQGLEWMGWMHPKSGDTGLTQKFQGRVTMTRDTSTSTVYMELSSLRSEDTAVYYCARDTPYYYYGMDVWGQGTTVTVSSGGGGSGGGGSGGGGSGGGGSDIQMTQSPSSLSASVGDRVTITCRASQSISSWLAWYQQKPGKAPKLLIYAASSLQSGVPSRFSGSGSGTDFTLTISSLQPEDFATYYCQQSYSVPITFGQGTKVEIK
B10: MAdCAM antibody Table 1 clone 38 (scFv)
scFv: EVQLLESGGGLVQPGGSLRLSCAASGFTFGSYSMSWVRQAPGKGLEWVSAIGTGGGTYYADSVKGRFTISRDNSKNTLYLQMNSLRAEDTAVYYCAKGTPYYYYYGMDVWGQGTMVTVSSGGGGSGGGGSGGGGSGGGGSDIQMTQSPSSLSASVGDRVTITCRASQPLSNWLAWYQQKPGKAPKLLIYAASSLQSGVPSRFSGSGSGTDFTLTISSLQPEDFATYYCQQAISFPLTFGGGTKVEIK
B11: MAdCAM antibody Table 1 clone 44 (scFv)
scFv: EVQLVESGGGLVKPGGSLRLSCAASGFTFSSYWMSWVRQAPGKGLEWVSAIGTGGGTYYAAPVKGRFTISRDDSKNTLYLQMNSLKTEDTAVYYCAREWLVPYYGMDVWGQGTTVTVSSGGGGSGGGGSGGGGSGGGGSDIQMTQSPSSLSASVGDRVTITCRASQSISRWLAWYQQKPGKAPKLLIYGASNLQSGVPSRFSGSGSGTDFTLTISSLQPEDFATYYCQQSYSTPWTFGQGTKVEIK
B12: MAdCAM antibody Table 1 clone 42 (scFv)
scFv: QVQLVQSGAEVKKPGSSVKVSCKASGGTLSRYGVSWVRQAPGQGLEWMGGIIPIFGTTNYAQKFQGRVTITADESTSTAYMELSSLRSEDTAVYYCARDRVYYDSSGYPTWYFDLWGRGTLVTVSSGGGGSGGGGSGGGGSGGGGSEIVMTQSPATLSVSPGERATLSCRASQSVSSSYLAWYQQKPGQAPRLLIYGASTRATGIPARFSGSGSGTEFTLTISSLQSEDFAVYYCQQYGSSPITFGQGTKVEIK
B13: MAdCAM antibody Table 1 clone 31 (scFv)
scFv: QVQLVQSGAEVKKPGASVKVSCKASGYTFTSYYMHWVRQAPGQGLEWMGIINPSGGSTSYAQKFQGRVTMTRDTSTSTVYMELSSLRSEDTAVYYCARDTGYSYGRYYYYGMDVWGQGTLVTVSSGGGGSGGGGSGGGGSGGGGSDIQMTQSPSSLSASVGDRVTITCRASQSIGRWLAWYQQKPGKAPKLLIYDASNLQSGVPSRFSGSGSGTDFTLTISSLQPEDFATYYCQQSYSIPITFGQGTKVEIK
B14: MAdCAM antibody Table 1 clone 36 (scFv)
scFv: B13 scFv with S31G, Y32H, L120T, Q245G

These binders were tested against T1, mouse MAdCAM expressed on cells (mouse, UniProt Q61826 22-405) (assay: cell binding).
T1 construct: whole, on cells
T1 sequence (looked up): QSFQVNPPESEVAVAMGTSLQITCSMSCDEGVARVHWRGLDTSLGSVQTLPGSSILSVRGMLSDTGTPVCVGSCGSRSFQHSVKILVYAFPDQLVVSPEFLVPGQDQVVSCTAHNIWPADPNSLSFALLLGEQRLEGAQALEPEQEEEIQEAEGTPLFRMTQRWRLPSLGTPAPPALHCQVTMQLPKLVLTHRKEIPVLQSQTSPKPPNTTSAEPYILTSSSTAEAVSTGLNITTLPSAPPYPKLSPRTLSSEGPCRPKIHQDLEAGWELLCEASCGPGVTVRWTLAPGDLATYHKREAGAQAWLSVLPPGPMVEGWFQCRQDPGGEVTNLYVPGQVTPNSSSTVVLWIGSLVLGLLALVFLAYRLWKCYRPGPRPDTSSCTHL

binding result | Binder
no binding | B1
no binding | B2
no binding | B3
no binding | B4
no binding | B5
no binding | B6
no binding | B7
no binding | B8
no binding | B9
no binding | B10
no binding | B11
no binding | B12
no binding | B13
no binding | B14

What follows are binders tested against T2, human MAdCAM expressed on cells (human, UniProt Q13477 19-382) (assay: cell binding).
T2 construct: whole, on cells
T2 sequence (looked up): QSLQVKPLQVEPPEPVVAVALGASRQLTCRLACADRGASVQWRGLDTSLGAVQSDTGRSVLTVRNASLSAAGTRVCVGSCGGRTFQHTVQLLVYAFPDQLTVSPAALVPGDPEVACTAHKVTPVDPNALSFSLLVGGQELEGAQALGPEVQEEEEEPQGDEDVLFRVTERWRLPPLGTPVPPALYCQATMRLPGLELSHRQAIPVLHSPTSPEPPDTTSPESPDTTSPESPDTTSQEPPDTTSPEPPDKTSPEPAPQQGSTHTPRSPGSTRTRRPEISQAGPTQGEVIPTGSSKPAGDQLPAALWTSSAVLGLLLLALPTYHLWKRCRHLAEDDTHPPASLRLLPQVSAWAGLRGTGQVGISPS

binding result | Binder
binds | B1
binds | B2
binds | B3
binds | B4
binds | B5
binds | B6
binds | B7
binds | B8
binds | B9
binds | B10
binds | B11
binds | B12
binds | B13
binds | B14
